In series [1] the target is T1, LbCas12a S1020E (Lachnospiraceae bacterium ND2006). As to the kind of experiment: cell_activity; WT 15.77; 50 nM RNP, HEK293, T7EI 48 h; PAM of site not stated.
The target in series [2] is T2, LbCas12a R182V (Lachnospiraceae bacterium ND2006). Described as above.
Series [3] concerns the target T3, LbCas12a P799V (Lachnospiraceae bacterium ND2006). Described as above.
Series [4] deals with T4, LbCas12a K1121D (Lachnospiraceae bacterium ND2006). The series is described as above.
The target in series [5] is T5, LbCas12a E795Q (Lachnospiraceae bacterium ND2006). The series is described as above.
In series [6] the target is T6, LbCas12a E981V (Lachnospiraceae bacterium ND2006). Described as above.
The target in series [7] is T7, LbCas12a G146R (Lachnospiraceae bacterium ND2006). The description is as above.
Series [8] has as its target T8, LbCas12a W890A (Lachnospiraceae bacterium ND2006). The series is described as above.
In series [9] the target is T9, LbCas12a G146R/R182V/E795Q (RVQ) (Lachnospiraceae bacterium ND2006). The description is as above.
Series [10] deals with T10, LbCas12a T152K (Lachnospiraceae bacterium ND2006). Described as above.
In series [11] the target is T1, LbCas12a S1020E. Put plainly: cell_activity; WT 7.70; 50 nM RNP, HEK293, T7EI 48 h; PAM of site not stated.
Series [12] has as its target T2, LbCas12a R182V. Described as above.
For series [13], the target named is T3, LbCas12a P799V. The description is as above.
The target of series [14] is T4, LbCas12a K1121D. Described as above.
Series [15] has as its target T5, LbCas12a E795Q. The description is as above.
For series [16], the target named is T6, LbCas12a E981V. The description is as above.
For series [17], the target named is T7, LbCas12a G146R. Described as above.
Series [18] addresses T8, LbCas12a W890A. Described as above.
Series [19] has as its target T9, LbCas12a G146R/R182V/E795Q (RVQ). The series is described as above.
The target in series [20] is T10, LbCas12a T152K. The description is as above.

B1: crRNA-4 HPRT 38486-S-23 ; HPRT 38486-S protospacer (DNA equivalent of crRNA-4 spacer) (ssRNA ; dsDNA)
RNA: UAAUUUCUACUAAGUGUAGAUUUGUAGGAUAUGCCCUUGACUAU
DNA 1: TTGTAGGATATGCCCTTGACTAT
DNA 2: ATAGTCAAGGGCATATCCTACAA
Turning to B1, the activity with LbCas12a S1020E [1] amounted to 7.6 % editing; in the series with LbCas12a R182V [2], 29.1 % editing; with LbCas12a P799V [3], 30.7 % editing; with LbCas12a K1121D [4], 6.87 % editing; with LbCas12a E795Q [5], 26.8 % editing; with LbCas12a E981V [6] it was 26.4 % editing. Besides, the activity with LbCas12a G146R [7] was found to be 32.2 % editing; with LbCas12a W890A [8], 4.27 % editing; in series [9], 51.5 % editing; in the series with LbCas12a T152K [10] it was 18.6 % editing.

B2: crRNA-2 HPRT 38094-S-23 ; HPRT 38094-S protospacer (DNA equivalent of crRNA-2 spacer) (ssRNA ; dsDNA)
RNA: UAAUUUCUACUAAGUGUAGAUAUAGUCUUUCCUUGGGUGUGUUA
DNA 1: ATAGTCTTTCCTTGGGTGTGTTA
DNA 2: TAACACACCCAAGGAAAGACTAT
Take B2: the activity with LbCas12a S1020E [11] was 4.27 % editing; with LbCas12a R182V [12] it was 10.4 % editing; with LbCas12a P799V [13], 16.7 % editing; in the series with LbCas12a K1121D [14] it was 3.65 % editing; with LbCas12a E795Q [15], 9.77 % editing; with LbCas12a E981V [16], 13.8 % editing. The activity was 16.2 % editing with LbCas12a G146R [17], 3.8 % editing in the series with LbCas12a W890A [18], 32.8 % editing in series [19] and 20.9 % editing with LbCas12a T152K [20].

The record behind these values is patent US20210348144 (published 2021).
